Data published in the nanobody polyreactivity screen of Harvey et al. (2022).

Assay: yeast display, Sf9 membrane polyspecificity reagent, FACS + sequencing; frameworks hold sequencing errors
Procedure, shortened: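 A synthetic nanobody library was expressed on Saccharomyces cerevisiae BJ5465 by galactose induction for 36–48 hours. The library was stained for 1 hour at 4 °C with 10% biotinylated, detergent-solubilized Sf9 membrane reagent and enriched with streptavidin microbeads before FACS. Low and high (top ~1%) gates were set on anti-HA fluorescence for expression and streptavidin fluorescence for reagent binding, and each polyreactivity label reflects the gate of origin.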

Sequence | polyreactivity (PSR sort gate)
QVQLVDSGGGLVQAGGSLRLSCAASGSIFRPYARGWYRQAPWKERELVASIRWYDGSTYYADSVKGRFTSSRDNAMNTVYLQMNSLKPEDSAVYYCAADYYSQLAGIFDYWGQGTQVTVSS | low polyreactivity
QVQLVDSGGGLVQAGGSLRLSCAASGSIFSSYVRGWYRQAPGKERELVAAITSRGGSTYYADSVKGRFTISRDNAKNTVYLQMNSLKPEDTAVYYCAKGGTLGGYWGQGTQVTVSS | high polyreactivity
QVQLVDSGGGLVQAGGSLRLSCAASGSIFTAYAMGWYRQAPGKERELVAAITSGGSTNYADSVKGRFTISRDNAKNTVYLQMNSLKPEDTAVYYCNADDYWLDSWSSVLWYDYWGQGTQVTVSS | low polyreactivity
QVQLVDSGGGLVQAGGSLRLSCAASGSIFVFYDMGWYSQAPGKEREMVATISSGGGGTYYTDSVKGRFTISRDNAKNTVYLQMNSLKPEDTAVYYCAAEGDKYGKGYGYWGQGTQVTVSS | low polyreactivity
QVQLVDSGGGLVQAGGSLRLSCAASGSIFVHYAMGWSRQAPGKEWELVAAITSSGGRTYYADSVKGRFTISRDNAKKTVYLQMNSLKPEDTEVYYCAAKQGRYNIYSNYDYWGQGTQVTVSS | high polyreactivity
QVQLVDSGGGLVQAGGSLRLSCAASGSIFYAYAMGWYRQATGKERQLLAVISRGGITNYSDSVKGRFTISRDNAKNTFFLQMNSLNPEDTAVYYCAAATSAWGYLRRYGYWGQGTQVTVSS | low polyreactivity
QVQLVDSGGGLVQAGGSLRLSCAASGSIFYNYVMGWCRQAPGKEREMVAAISSGGGTNYADSVKGRFTISRDNAKYTVYLQMNSLKPEDTAVYYCAKASAYGLANDYDYWGQGTQVTVSS | low polyreactivity
QVQLVDSGGGLVQAGGSLRLSCAASGSIIKRKAMGWYRQAPGKERELVASISSGGSTHYADSVKGRFTISRDNAKNTVYLQMNSLKPEDTAVYYCAATSIRWSVGSFRRDYWGQGTQVTVSS | low polyreactivity
QVQLVDSGGGLVQAGGSLRLSCAASGSISSFYAMGWYRQAPGKERELVAGITSGGSTNYADSVKGRFTISRDNAKNTVYLQMNSLKPEDTAVYYCAAVYKGAGTHFDVFVKEFDYWGQGTQVTVSS | low polyreactivity
QVQLVDSGGGLVQAGGSLRLSCAASGSISYYNAMGWYRQAPGKERELVATITDSGGSTYYADSVKGRFTISRDNAKNTVYLQMNSLKPEDTAVYYCAVDYSEWYSIYDYWGQGTQVTVSS | low polyreactivity
QVQLVDSGGGLVQAGGSLRLSCAASGSIVYYNDMGWYRQAPGKEREVVATITSGGTTYYADSVKGRFTISRDNAKNSVYVQMNSLKGEDTAVYYCAATSYPGFDDWGQGSQVTVSS | low polyreactivity
QVQLVDSGGGLVQAGGSLRLSCAASGSTFALYAMGWYRQAPGKERELVAAITWSGTGTYYADSVKGRFTISRDNAKNTVYLQMNSLKPEDTAVYSCNAEYWWWGLGNDYWGQGTQVTVSS | low polyreactivity
QVQLVDSGGGLVQAGGSLRLSCAASGSTFDTNVMGWYRQAPGKERELVAAIDVSGGSTYYADSVKGRFTISRDNAKNTVYLQMNSLKPVDTAVYYCAAEDGQYGMDYWGQGTQVSVSS | low polyreactivity
QVQLVDSGGGLVQAGGSLRLSCAASGSTFISYAMGWYRQAPGKERELVAAISRRGDSTYYADSVKGRFTISRDNAKNNVYLEMNSLKPEDTAVYYCAADVSGDKGSIHMNYWGQGTLVTVSS | low polyreactivity
QVQLVDSGGGLVQAGGSLRLSCAASGSTFPIYAMEWYRQAPGKERELVAAISSGGSTYYADSVKGRFTISRDNAKNTVYLQMNSLKPEDTAVYYCAADYSQPNFEYYYWGQGTQVTVSS | low polyreactivity
QVQLVDSGGGLVQAGGSLRLSCAASGSTFRRNALGWYRQAPGKERELVAAITRSGGRTYYADSVKGRFTISRDNAKNTVYLQMNSLKPEDTAVYYCAARHAPTRYGYWGQGTQVTVSS | high polyreactivity
QVQLVDSGGGLVQAGGSLRLSCAASGSTFSHYTMGWYRQAPGKERELVAAINYGGASTYYADSVKGRFTISRDNAKNTVYLQMNSLKPEDTAVYYCAAANRPSEQDNYWGQGTQVTVSS | low polyreactivity
QVQLVDSGGGLVQAGGSLRLSCAASGSTFTRNVMGWYRQAPGKERELVASISRSGGRTYYADSVKGRFTISRDNAMNTVYLQMNSMKPDDTAVYYCAAKYFYYLDPYDYWGQGTHVTVSS | high polyreactivity
QVQLVDSGGGLVQAGGSLRLSCAASGSTFVKYTMGWYRQAPGKERELVAVISRSGGSTYYADSVKGRFTISRDNAKNTVYLQMNSLKPEDTAVYYCAAHFSRDFDYWGLGTQVTVSS | high polyreactivity
QVQLVDSGGGLVQAGGSLRLSCAASGSTFYAYVMGWYRQAPGKERELVAGITWSGGSTYYADSVKGRFTISRDNAKNTVYLQMNSLKPEDTAVYYCAADYYNTYGYDYWGQGTQVTVSS | low polyreactivity
QVQLVDSGGGLVQAGGSLRLSCAASGSTFYEYAMGWYRQPPGKERELVAAITSGGSTYYADSVKGRFTISRDNAKNTVYLQMNSLKPEDTAVYYCAADPRIRRGDRSTHGYDYWGQGTQVTVSS | low polyreactivity

Sequence | polyreactivity (PSR sort gate)
QVQLVDSGGGLVQAGGSLRLSCAASGSTFYFKAMGWYRQAPGKEREFVATIRSGGSTYYADSVKGRFTISRDYAKNSVYLQMNSLTPEDTAVYYCAADLVDSYQWSIFLYGYWGQGTQVTVSW | low polyreactivity
QVQLVDSGGGLVQAGGSLRLSCAASGSTLAYYTMGWYRQAPGKERELVAAITSGGFTHYADSVKGRFTISRDNAKNTVYLQMNSLKPEDTAVYYCAAKRGPVYYGYYYLGQGTQVTVSS | high polyreactivity
QVQLVDSGGGLVQAGGSLRLSCAASGSTVTSYAMGWYRQAPGKERELVAAITYGSGTTYADSVKGRFTISRDNAKNTVYLQMNSLKPEDTAVYYCAADFYYPVLGHGFPTYEYDYWGQGTQVTVSS | low polyreactivity
QVQLVDSGGGLVQAGGSLRLSCAASGYTFRYYAMGWYRQEPGKERELVAAITRSGTTYYADSVKGRFTISRDNAKNTVYIQMNSLKTDDTAVYYCNTRVTGNRLGYYYWGQGTQVTVSS | high polyreactivity
QVQLVDSGGGLVQAGGSLRLSCADSGSIFSRNTMGWYRQAPGKERELVAGISSSGSRTYYADSVKGRFTISRDNAKNTVYLQMNSLKPEDTAFYYCAAGSQRRYYHTNCDSFNYSGQGTQVTVSS | low polyreactivity
QVQLVDSGGGLVQAGGSLRLSCADSGSINGNYVMGWYRQAPRKERELVAAIRWTGGSTYYADTVKGRFTISRDNAKNTVYLQMNSLKPEDTAVYYCNAESTYYPSGEDYWGQGTQVNVSS | high polyreactivity
QVQLVDSGGGLVQAGGSLRLSCAGSGLTFRFYAMVWYRQAPGKEREFVAAISSSGTTTYYADSVKGRFTISRDNAKNTVYLQMNSLKPEDTADFYCNKEYTTYGYDLEYDFWGQGTQVTVSS | low polyreactivity
QVQLVDSGGGLVQAGGSLRLSCGASGLIFKYNVMGWYRQAPGKERELVAAITWGGTRTYYADSVKGRFTISRDTAKNTVYLQMNSLKPEDTAVYYCAVRSARIERNYWGQGTQVTVSS | low polyreactivity
QVQLVDSGGGLVQAGGSLRLSCPASGGIFGEYAMGWYRPAPGKEMELVAAINWSGGSTYYADSVKGRFTISRDNAKNTVYLQMNSLKPEDTAVYYCAADRGYPGNVDYWGQGSQVTVSS | low polyreactivity
QVQLVDSGGGLVQAGGSLRLSCPASGSIIPYNALGWYRQAPGKERELVATISSGGSTNYADSVKGRFTISRDNAKNTVYFQMNSLKPEDTAVYYCAADVIVFYYAPNYWGDIEYGYWGQGTQVTVSS | low polyreactivity
QVQLVDSGGGLVQAGGSLRLSCPASGSTFLVYAMGWYRQAPGKERELVAVITYSTVRTYYADSVKGRFTISRDNAKNTVYLQMNSLKPEDTAVYHCNADKEFAVLGQGMDFWGQGTQVTVSS | low polyreactivity
QVQLVDSGGGLVQAGGSLRLSCSASGIIFRYYTMVWYRQDPGKERELVASISRSGGNTYYADSVKGRFTISRDNAMNTVYLQMNSLKPEDTAVYYCAARRHQKYQESNYWGQGTQVTVSS | high polyreactivity
QVQLVDSGGGLVQAGGSLRLSFAASGNIIYQNAMGWDRQAPGKERELVAAISSGGSTNYADSVKGRFTISRDNAKITVYLQMNSLKPEDTAVYYCAAEHWTESVWDDSWGQGTQVTVSS | low polyreactivity
QVQLVDSGGGLVQAGGSLRLSSAASGRIFNRYAMGWYRQAPGKERELVAAITRGTRTNYADSVKGRFTISRDNAKNTVYLQMNSLKPEDTAVYYCAAAYGRGSDSDYWGQGTQVTVSS | high polyreactivity
QVQLVDSGGGLVQAGGSLRLSSPASGIIFTRYTMGCYSQEPGKERELVAAITTSGGRTYYADSVKGRFTISRDNAKNTVYLPMNSLKPEDTAVYYCDVSGHARYDYWGQGTQVTVSS | high polyreactivity
QVQLVDSGGGLVQAGGSLSLICAASGSNFRYYAMGWYRKAPGKERELVDAINWSGGSTYYADSVKGRFTSSRDNAKNTVYLQMNSLKPEHTAVYSCNAVGWRSLHRDYWGQGTQVTLSS | high polyreactivity
QVQLVDSGGGLVQAGGSLSLSCAASGRTFVTNAMGWYRQAPGKERELVAAISGNGGSTYYADSVKGRFTISRDNAKNTVYLQMNSLKPEDTAVYYCNKDYHVRYYYWGQGTQVTVSS | low polyreactivity
QVQLVDSGGGLVQARVNLRLSCRATGIIFYLYVMGWYRQSPGKDRELVAVISYSGDDTYYADSVQVRFTISRDNAKNTVYLQMISLKPEDTAVYYCADDSIGYGVDYWGQGTQVTVSS | low polyreactivity
QVQLVDSGGGLVQAVGSLRLSCAASGRTFRRYAMGWYRQAPGKERELVAAISRSGGSTYYADSVNGRFTISRDNAKNTVYLQMNSLKPEDTAVYYCAAGIWSKLVEPFDYCGQGTQVTVSS | high polyreactivity
QVQLVDSGGGLVQAVGSLRLSCAASGRTLGAYAMGWYRQAPGKEREFVARITYGGRTFYADSVKGRFTISRDNAKNTVYLQMNSLKPEDTAVYYCATKLPYRWYDYWGQGTQVTVSS | high polyreactivity
